These results are taken from patent US20140087995A1 (published 2014).

T1: human amylin receptor (human, UniProt P30988 25-474; O60896 24-148, limits assumed)
T1 construct: whole, on cells; Calcitonin receptor plus RAMP-3 gives the amylin 3(a) receptor; membranes of Amylin 3(a)/CRE-luc cells were used; also called hAmylin-R; hAmylinR
T1 sequence (looked up) 1: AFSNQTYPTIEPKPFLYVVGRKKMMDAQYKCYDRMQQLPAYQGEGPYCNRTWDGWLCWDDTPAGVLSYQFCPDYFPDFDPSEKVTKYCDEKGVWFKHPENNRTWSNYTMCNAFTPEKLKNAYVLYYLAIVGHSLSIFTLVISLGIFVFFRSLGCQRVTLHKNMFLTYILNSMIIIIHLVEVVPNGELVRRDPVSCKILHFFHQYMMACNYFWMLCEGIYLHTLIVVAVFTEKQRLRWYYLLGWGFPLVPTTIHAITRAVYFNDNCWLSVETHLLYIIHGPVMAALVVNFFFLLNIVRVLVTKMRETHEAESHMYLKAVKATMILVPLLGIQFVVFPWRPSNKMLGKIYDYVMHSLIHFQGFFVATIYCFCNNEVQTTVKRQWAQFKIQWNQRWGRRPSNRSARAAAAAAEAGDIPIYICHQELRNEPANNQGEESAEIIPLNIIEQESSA
T1 sequence (looked up) 2: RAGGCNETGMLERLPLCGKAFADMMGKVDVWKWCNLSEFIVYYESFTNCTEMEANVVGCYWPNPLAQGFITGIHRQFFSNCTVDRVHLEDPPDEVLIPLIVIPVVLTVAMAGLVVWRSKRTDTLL

B1: N^α1 N^α1-[(4S)-4-carboxy-4-[[(4S)-4-carboxy-4-(19-carboxynonadecanoylamino)butanoyl]amino]butanoyl]-[Glu14,Arg17,Pro21,Pro27]-h-amylin (peptide)
peptide: {C20 diacid-γGlu-γGlu}-KCNTATCATQRLAEFLRHSSPNFGAIPSSTNVGSNTY-NH2
modifications: disulfide 2-7
SMILES: CC[C@H](C)[C@H](NC(=O)[C@H](C)NC(=O)CNC(=O)[C@H](Cc1ccccc1)NC(=O)[C@H](CC(N)=O)NC(=O)[C@@H]1CCCN1C(=O)[C@H](CO)NC(=O)[C@H](CO)NC(=O)[C@H](Cc1c[nH]cn1)NC(=O)[C@H](CCCNC(=N)N)NC(=O)[C@H](CC(C)C)NC(=O)[C@H](Cc1ccccc1)NC(=O)[C@H](CCC(=O)O)NC(=O)[C@H](C)NC(=O)[C@H](CC(C)C)NC(=O)[C@H](CCCNC(=N)N)NC(=O)[C@H](CCC(N)=O)NC(=O)[C@@H](NC(=O)[C@H](C)NC(=O)[C@@H]1CSSC[C@H](NC(=O)[C@H](CCCCN)NC(=O)CC[C@H](NC(=O)CC[C@H](NC(=O)CCCCCCCCCCCCCCCCCCC(=O)O)C(=O)O)C(=O)O)C(=O)N[C@@H](CC(N)=O)C(=O)N[C@@H]([C@@H](C)O)C(=O)N[C@@H](C)C(=O)N[C@@H]([C@@H](C)O)C(=O)N1)[C@@H](C)O)C(=O)N1CCC[C@H]1C(=O)N[C@@H](CO)C(=O)N[C@@H](CO)C(=O)N[C@H](C(=O)N[C@@H](CC(N)=O)C(=O)N[C@H](C(=O)NCC(=O)N[C@@H](CO)C(=O)N[C@@H](CC(N)=O)C(=O)N[C@H](C(=O)N[C@@H](Cc1ccc(O)cc1)C(N)=O)[C@@H](C)O)C(C)C)[C@@H](C)O
notes: also called 14E, 17R, 21P, 27P
B2: N^α1-[(4S)-4-carboxy-4-(19-carboxynonadecanoylamino)butanoyl]-[Arg17,Pro21,Pro27,Pro31,Glu35]-h-amylin (peptide)
peptide: {C20 diacid-γGlu}-KCNTATCATQRLANFLRHSSPNFGAIPSSTPVGSETY-NH2
modifications: disulfide 2-7
SMILES: CC[C@H](C)[C@H](NC(=O)[C@H](C)NC(=O)CNC(=O)[C@H](Cc1ccccc1)NC(=O)[C@H](CC(N)=O)NC(=O)[C@@H]1CCCN1C(=O)[C@H](CO)NC(=O)[C@H](CO)NC(=O)[C@H](Cc1c[nH]cn1)NC(=O)[C@H](CCCNC(=N)N)NC(=O)[C@H](CC(C)C)NC(=O)[C@H](Cc1ccccc1)NC(=O)[C@H](CC(N)=O)NC(=O)[C@H](C)NC(=O)[C@H](CC(C)C)NC(=O)[C@H](CCCNC(=N)N)NC(=O)[C@H](CCC(N)=O)NC(=O)[C@@H](NC(=O)[C@H](C)NC(=O)[C@@H]1CSSC[C@H](NC(=O)[C@H](CCCCN)NC(=O)CC[C@H](NC(=O)CCCCCCCCCCCCCCCCCCC(=O)O)C(=O)O)C(=O)N[C@@H](CC(N)=O)C(=O)N[C@@H]([C@@H](C)O)C(=O)N[C@@H](C)C(=O)N[C@@H]([C@@H](C)O)C(=O)N1)[C@@H](C)O)C(=O)N1CCC[C@H]1C(=O)N[C@@H](CO)C(=O)N[C@@H](CO)C(=O)N[C@H](C(=O)N1CCC[C@H]1C(=O)N[C@H](C(=O)NCC(=O)N[C@@H](CO)C(=O)N[C@@H](CCC(=O)O)C(=O)N[C@H](C(=O)N[C@@H](Cc1ccc(O)cc1)C(N)=O)[C@@H](C)O)C(C)C)[C@@H](C)O
notes: also called 17R, 21P, 27P, 31P, 35E
B3: N^α1-[(4S)-4-carboxy-4-(19-carboxynonadecanoylamino)butanoyl]-[Arg17,Pro21,Pro27,His34]-h-amylin (peptide)
peptide: KCNTATCATQRLANFLRHSSPNFGAIPSSTNVGHNTY
modifications: C20 diacid-gGlu on the alpha amino group of the N-terminal residue; disulfide Cys2-Cys7 and C-terminal amide as in human amylin
notes: also called 17R, 21P, 27P, 34H
B4: N^α1-[2-[2-[2-[[2-[2-[2-[[(4S)-4-carboxy-4-(19-carboxynonadecanoylamino)butanoyl]amino]ethoxy]ethoxy]acetyl]amino]ethoxy]ethoxy]acetyl]-[Glu14,Arg17,Pro21,Pro27 … (peptide)
peptide: KCNTATCATQRLAEFLRHSSPNFGAIPSSTNVGSNTY
modifications: C20 diacid-gGlu-2xOEG on the alpha amino group of the N-terminal residue; disulfide Cys2-Cys7 and C-terminal amide as in human amylin
notes: as for B1
B5: N^α1-[(4S)-4-carboxy-4-(19-carboxynonadecanoylamino)butanoyl]-[Arg17,Pro21,Pro27,Arg34]-h-amylin (peptide)
peptide: KCNTATCATQRLANFLRHSSPNFGAIPSSTNVGRNTY
modifications: C20 diacid-gGlu on the alpha amino group of the N-terminal residue; disulfide Cys2-Cys7 and C-terminal amide as in human amylin
notes: also called 17R, 21P, 27P, 34R
B6: N^α1-[(4S)-4-carboxy-4-(19-carboxynonadecanoylamino)butanoyl]-[Arg17,Pro21,Pro27,Pro34,Glu35]-h-amylin (peptide)
peptide: {C20 diacid-γGlu}-KCNTATCATQRLANFLRHSSPNFGAIPSSTNVGPETY-NH2
modifications: disulfide 2-7
SMILES: CC[C@H](C)[C@H](NC(=O)[C@H](C)NC(=O)CNC(=O)[C@H](Cc1ccccc1)NC(=O)[C@H](CC(N)=O)NC(=O)[C@@H]1CCCN1C(=O)[C@H](CO)NC(=O)[C@H](CO)NC(=O)[C@H](Cc1c[nH]cn1)NC(=O)[C@H](CCCNC(=N)N)NC(=O)[C@H](CC(C)C)NC(=O)[C@H](Cc1ccccc1)NC(=O)[C@H](CC(N)=O)NC(=O)[C@H](C)NC(=O)[C@H](CC(C)C)NC(=O)[C@H](CCCNC(=N)N)NC(=O)[C@H](CCC(N)=O)NC(=O)[C@@H](NC(=O)[C@H](C)NC(=O)[C@@H]1CSSC[C@H](NC(=O)[C@H](CCCCN)NC(=O)CC[C@H](NC(=O)CCCCCCCCCCCCCCCCCCC(=O)O)C(=O)O)C(=O)N[C@@H](CC(N)=O)C(=O)N[C@@H]([C@@H](C)O)C(=O)N[C@@H](C)C(=O)N[C@@H]([C@@H](C)O)C(=O)N1)[C@@H](C)O)C(=O)N1CCC[C@H]1C(=O)N[C@@H](CO)C(=O)N[C@@H](CO)C(=O)N[C@H](C(=O)N[C@@H](CC(N)=O)C(=O)N[C@H](C(=O)NCC(=O)N1CCC[C@H]1C(=O)N[C@@H](CCC(=O)O)C(=O)N[C@H](C(=O)N[C@@H](Cc1ccc(O)cc1)C(N)=O)[C@@H](C)O)C(C)C)[C@@H](C)O
notes: also called 17R, 21P, 27P, 34P, 35E
B7: N^α1-[2-[2-[2-[[2-[2-[2-[[(4S)-4-carboxy-4-(19-carboxynonadecanoylamino)butanoyl]amino]ethoxy]ethoxy]acetyl]amino]ethoxy]ethoxy]acetyl]-[Glu14,Arg17,Pro21,Pro27 … (peptide)
peptide: {C20 diacid-γGlu-AEEA-AEEA}-KCNTATCATQRLAEFLRHSSPNFGAIPSSTNVGSNTP-NH2
modifications: disulfide 2-7
SMILES: CC[C@H](C)[C@H](NC(=O)[C@H](C)NC(=O)CNC(=O)[C@H](Cc1ccccc1)NC(=O)[C@H](CC(N)=O)NC(=O)[C@@H]1CCCN1C(=O)[C@H](CO)NC(=O)[C@H](CO)NC(=O)[C@H](Cc1c[nH]cn1)NC(=O)[C@H](CCCNC(=N)N)NC(=O)[C@H](CC(C)C)NC(=O)[C@H](Cc1ccccc1)NC(=O)[C@H](CCC(=O)O)NC(=O)[C@H](C)NC(=O)[C@H](CC(C)C)NC(=O)[C@H](CCCNC(=N)N)NC(=O)[C@H](CCC(N)=O)NC(=O)[C@@H](NC(=O)[C@H](C)NC(=O)[C@@H]1CSSC[C@H](NC(=O)[C@H](CCCCN)NC(=O)COCCOCCNC(=O)COCCOCCNC(=O)CC[C@H](NC(=O)CCCCCCCCCCCCCCCCCCC(=O)O)C(=O)O)C(=O)N[C@@H](CC(N)=O)C(=O)N[C@@H]([C@@H](C)O)C(=O)N[C@@H](C)C(=O)N[C@@H]([C@@H](C)O)C(=O)N1)[C@@H](C)O)C(=O)N1CCC[C@H]1C(=O)N[C@@H](CO)C(=O)N[C@@H](CO)C(=O)N[C@H](C(=O)N[C@@H](CC(N)=O)C(=O)N[C@H](C(=O)NCC(=O)N[C@@H](CO)C(=O)N[C@@H](CC(N)=O)C(=O)N[C@H](C(=O)N1CCC[C@H]1C(N)=O)[C@@H](C)O)C(C)C)[C@@H](C)O
notes: also called 14E, 17R, 21P, 27P, 37P

Numbered stars: 1 amine (or outer) side, 2 acyl side, 3 side chain; on linkers, the order of the positions; unused ones are H or OH. Bridge positions count the residues as written; N and C are the ends. * marks the point of attachment. C20 diacid = O=C(O)CCCCCCCCCCCCCCCCCCC(=O)*; γGlu = O=C(O)[C@H](CCC(=O)[*:2])N[*:1]; AEEA = NCCOCCOCC(=O)O

For the assay, the target named is T1, human amylin receptor. The assay is described as follows: SPA competition binding, displacement of 125I-rat amylin from membranes with human amylin 3(a) receptor (Assay V). Here is the method:
The binding assay was performed using scintillation proximity assay (SPA) beads (RPNQ0001) from PerkinElmer and cell membranes from the Amylin 3(a)/CRE-luc cells (as described in Assay (II)) were used. Membranes were prepared in the following way; the cells were rinsed with PBS and incubated with Versene for approximately 5 min before harvesting. The cells were flushed with PBS and the cell-suspension was centrifuged for 5 min at 1000 rpm. Cells were homogenized (ultrathurrax) in a buffer containing 20 mM Na-HEPES and 10 mM EDTA (pH 7.4) and centrifuged at 20.000 rpm for 15 min. The resulting pellet was resuspended, homogenized and centrifuged (20.000 rpm, 15 min) in a buffer containing 20 mM Na-HEPES and 0.1 mM EDTA (pH 7.4, buffer 2). The resulting pellet was resuspended in buffer 2 and protein concentration was measured (BCA protein Assay, Pierce). The homogenate was kept cold during the whole procedure. The membranes were kept at −80° C. until use. The assay was performed in a 384 well Optiplate (PerkinElmer) in a total volume of 40 ul. Membranes were mixed with SPA beads. Final concentration of membranes 35 ng/μL final and SPA beads was 0.05 mg/well. Test-compounds were dissolved in DMSO and further diluted in assay buffer (50 mM Hepes, pH 7.4, 1 mM CaCl2, 5 mM MgCl₂, 0.1% OA and 0.02% Tween20). […] The final mixture was incubated with shaking at 400 rpm for 120 min at 25° C. prior to centrifugation (1500 rpm, 10 min). Samples were analyzed on TopCounter™ (Packard). The IC₅₀ was calculated using (one site binding competition analysis) GraphPad Prism5 as a measure of receptor affinity.
For B1, the IC50 came out at 0.597 nM. To B2 belongs 0.61 nM; to B3, 0.549 nM. With B4 the figure was 0.556 nM. B5 returned an IC50 of 0.665 nM.

B6 registered an IC50 of 0.577 nM. With B7 the figure was 0.217 nM.

As a reminder, the IC50 is the concentration needed to halve the response being measured. Low values mean higher potency, high ones lower potency.
